For test [1], the target named is T1, GLP-1 receptor (Homo sapiens, UniProt P43220).
T1 construct: expressed in transfected cells; host or cells: CHO-K1/GLP1/Gα15
As to the kind of experiment: Cell-based GLP-1 receptor assay, intracellular calcium mobilization in CHO-K1/GLP1/Gα15 (FlexStation). To be noted: Calcium-4. The method, then: The intracellular calcium change was measured by FlexStation. […] A lower EC50 indicates a higher activity.
(In general: A change in cytosolic calcium serves as a functional read-out for many receptors and channels.)

Test [2] addresses GLP-1 receptor on CHO-K1/GLP1/Gα15 cells (UniProt P43220). As to the kind of experiment: cell-based or functional assay.
For test [3], the target named is T2, GLP-1 receptor (covalently immobilized on the Biacore biosensor surface) (UniProt P43220 24-145, limits assumed).
T2 construct: also called the receptor
Nature of the test: Biacore (SPR), GLP-1 receptor covalently immobilized, peptide injected. For orientation: Surface plasmon resonance follows binding to a sensor surface in real time, without labels.

GLP-1 receptor on CHO-K1/GLP1/Gα15 cells, sequence (P43220 24-463 limits assumed): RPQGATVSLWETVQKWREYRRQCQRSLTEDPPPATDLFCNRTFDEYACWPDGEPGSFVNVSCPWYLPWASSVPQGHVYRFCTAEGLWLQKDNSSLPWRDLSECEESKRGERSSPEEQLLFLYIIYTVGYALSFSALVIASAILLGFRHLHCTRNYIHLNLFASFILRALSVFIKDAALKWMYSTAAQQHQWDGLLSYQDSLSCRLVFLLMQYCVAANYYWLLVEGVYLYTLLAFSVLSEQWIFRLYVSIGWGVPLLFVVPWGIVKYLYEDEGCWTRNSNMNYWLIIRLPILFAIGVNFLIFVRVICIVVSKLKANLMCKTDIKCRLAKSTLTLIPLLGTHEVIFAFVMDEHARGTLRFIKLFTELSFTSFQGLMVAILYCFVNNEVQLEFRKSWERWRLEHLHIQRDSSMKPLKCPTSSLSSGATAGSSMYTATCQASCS
T1 sequence (P43220 24-463, species assumed): as the sequence (P43220 24-463 limits assumed) above

In general, EC50 refers to the concentration giving half of the maximal effect. As for “5 kDa-PEG-Cys(37)-GLP-1 (HAEGTFTSDVSSYLEGQAAKEFIAWLVKGRC)”, in test [1], the EC50 amounted to 336 nM.

B1: 5 kDa-PEG-Cys(37)-GLP-1 (peptide)
peptide: HAEGTFTSDVSSYLEGQAAKEFIAWLVKGRC
modifications: 5 kDa cysteine-reactive maleimide-PEG on the added Cys at position 37
notes: range 27-56; also called 5 kDa-PEG-GLP-1 (Cys analog); C-terminally PEGylated GLP-1
Usually Kd stands for the concentration at which binding is half-saturated. A lower Kd goes with a tighter complex. For B1, the EC50 of intracellular calcium mobilization (Calcium-4, FlexStation RFU) in test [2] is 336 nM. The same molecule had a Kd in test [3] of 1600 nM.

(Values after patent US20160151511A1, “PROTEINS AND PROTEIN CONJUGATES WITH INCREASED HYDROPHOBICITY” (priority 2014, published 2016).)
